Reference: the DeepSol protein solubility set

Assay: soluble on expression in E. coli; label from the status in PepcDB or PDB records

Row | Sequence | soluble on expression in E. coli
1 | MGSDKIHHHHHHMGENMKILISVCGEGFGHTTRCVAIGEALKNDYEISYIAYGKSKNFIEKYGFKVFETFPEIKLKGKDGKFDITSSILNKEYSPKKAIRREINIIREYNPDLIISDCKYSTVVAAKLLKKPVICISNQNYTRYKLKTDLIVYPTMKALNIINERCERFIVPDFPLPYTICEYNLKIIKNMEFIGPLIRYDVDDVDNYGEDYILSVIGGFEYRYKILEELGKIALKNNLNVKLVCGSYEVAKKLMRDLNLNSYKNENVEIIPITTNMKELIKNAELIVSHGGHSTIMEALSFGKPLIVIPDLDHPEQGNNAKKVHDLGCGIALSYKELYRLEEAILDIRNMKMYKRNASKMKELAKKYDGKKNIKKIIDEFFETRKNIRKYYLTDRIANKLINKFKLKIR | not soluble
2 | MLEQPYLDLAKKVLDEGHFKPDITHTGTYSIFGHQMRFDLSKGFPLLTTKKVPFGLIKSELLWFLHGDTNIRFLLQHRNHIWDEWAFEKWVKSDEYHGPDMTDFGHRSQKDPEFAAVYHEEMAKFDDRVLHDDAFAAKYGDLGLVYGSQWRAWHTSKGDTIDQLGDVIEQIKTHPYSRRLIVSAWNPEDVPTMALPPCHTLYQFYVNDGKLSLQLYQRSADIFLGVPFNIASYALLTHLVAHECGLEVGEFIHTFGDAHLYVNHLDQIKEQLSRTPRPAPTLQLNPDKHDIFDFDMKDIKLLNYDPYPAIKAPVAV | soluble
3 | MGHHHHHHSHMANSAGSMANSAGSSWHNDHNFSVSKQPNLVVHNHTVTVPEGETVKGDVTVKNGKLIIKGKIDGDVTVVNGEKYMASAGQVTGQIEEINQLFDWTWYKMKSAGKSVLDAFNPNGEE | not soluble
4 | MSLEKKTANDVVTLARAQDRLTTLEYIEAIFEDFLEFHGDRYFADDLAVVGGVATLQGKPVTVVGIQKGRNLPENIERNFGSPNPEGYRKALRLMKQAEKFNRPVITFVNTAGAYCGIGAEERGEGEAIAQNLLEMSDLKVPIISVIIGEGGSGGALALAVADEVWMLEHTIYAVLSPEGFASILWKDGSRAKEAAELMKITATELKELAIVDKVIPEVMNGQPLEQAKINRMLQKAFISKLTELAKLDTETLLEKRYQRFRKYEGHHHHHH | soluble
5 | VPFDPGKIERAIAAAGQATGEFDPQQAQALAERVVERLPERACLDIERVQDLVERVLMEAGHYPTARAYVVYRERHGRLRRERKTLVDVAASMNEYLSREDWRVRANANQGYSLGGLILNVSGKVTANYWLDEVYDADIAAAHRDADLHIHDLDMLAGYCAGWSLRTLLNEGLNGVPGRVEAGPPKHLGSALGQMVNFLGTLQNEWAGAQAFSSFDTYLAPYVRKDRLDYASVRQALQEFIYNLNVPSRWGTQTPFTNLTFDWVCPDDLRDQVPRIGGEEMPFAYGELQAEMDLINRAYIEVMQAGDAHGRVFTFPIPTYNITHDFPWDSDNATRLFEMTARYGLPYFQNFLNSDMQPNQVRSMCCRLQLDVRELLKRGNGLFGSAEQTGSLGVVTINCARLGYRHRGDAAGLYRQLDHLLELAFASLELKRKVIQQHMDAGLYPYTRRYLGTLRNHFSTIGVNGLHEMVRNFSDDREGLHSEAGREMALALLDHVRARLVGFQEDSGHLYNLEATPAEGTTYRFAREDRKRYPRILQAGTPEAPYYTNSSQLPVGFTDDPFEALELQDALQCKYTGGTVLHLYMAERISSAEACKTLVRTALGRFRLPYLTVTPTFSICPRHGYLAGEHEFCPKCDEELLQRSTPKSCCGGC | not soluble
6 | PADLSGTWTLLSSDNFEGYMLALGIDFATRKIAKLLKPQKVIEQNGDSFTIHTNSSLRNYFVKFKVGEEFDEDNRGLDNRKCKSLVIWDNDRLTCIQKGEKKNRGWTHWIEGDKLHLEMFCEGQVCKQTFQRA | soluble
7 | GGGGGGMVNLQRARTPIHRVGFARPPLHLAIPHPATTTPCAMSAESLVLALVLLALCGAVMLRWISQRHAHDSAVGDKALTHKGRLRLSQNASGSAAGRCGSDDGNDSDQGGVDDDNGGAVGRRRRGAGGVLRRRRPQERGGNARRGGSDGDENSYDGDDAGGIPETDANGVKLTRLQRKKLAKEREREERRQAQEAALEAQRQRMDVNELRDAEAALREEELKAAEEAALQQLRRDKKKAEDEEYAKWVSHIGVEERGELGDEERERQTRMQSFLLDRAAQVQARARRSAAGAKSSPSEEECIHVLILQTAARDLKVSVEELVSTIEQLSQVDKVHGVFDDRGKYVFIAPEQFPLLAQFIRLRGRVSVQEFTRECNRVVMQS | soluble
8 | MKRNAWEVYGEVLKTARELGLEGEEQEVAKALLAWPKERFHALAARVGLKAKYLRHDLLPIAFLPEPLREALQGGLPLREAHRLHRLLKRGELSLQDLTGKDPKALMALPARPGEVDPRLPVWFFPPEPWEEALPMAVARALVQLYTREGELVLDPMAGRGTVVEAARALDRRAWGGDIAPRGPLVERADIRDLPRRFRKEAALVVLHPPTFSTWLREEGYREEAEERYGEYIRHISSFLDLCRPTLAPGGKLVLVARPRRTLTPKDLEAGHDFFLAPWERALAEADFRPLSYHLAVSQDGRQDWHLFVGEPRG | soluble
9 | MGHHHHHHSHMANSAGSMANSAGSMPPLSTIDPSGTRSKNMPIKDNALVMFNGKVYLLAKKGTDVLPSQIDQQNSVSPDTPVRKDTLQTVSSSPVTEISREVVNIVLAKSKSSQMETKSLSNTQLASMANLRAEKNKVEKPSPSTTNPHMNQSSNYLKQSKTLFTNPIFPVGFSTGHNAPRKVTAVIYARKGSVLQSIEKISSSVDATTVTSQQCVFRDQEPKIHNEMASTSDKGAQGRNDKKDSQGRSNKALHLKSDAEFKKIFGLTKDLRVCLTRIPDHLTSGEGFDSFSSLVKSGTYKETEFMVKEGERKQQNFDKKRKAKTNKKMDHIKKRKTENAYNAIINGEANVTGSQLQYFTNFRCVTT | not soluble
10 | GPGSMCNDDARQEGVQWPSSQQLAALADIEGDVQMKAAQLGLLSSEYRANIARVLHHYEPQAATFRTIIYASEQKRKAVERELVWTERIALLQEQRCGTTIVSTRDLMVLEREPLHPVECSLKECYQKLENVAYNELCVLRNYEYPPRQAVATMRMIMRVRGEEDLSWENVQVVLSENYFYTFFVSRMRTLLQKRLPDDVLEELEQYCLNPEHAPEALAVVSVPLGVIGSLLHAVRDYFQVMDLVKRPVEPMSVEERRKKAGELRRALQTLKEDAATATEGMADLKARIASKFVTVRDEYDDTMCPLHDDLEKKTEDFLKVLSGDIPAEEGATGEGECPDAM | not soluble
11 | MAISSRNTLLAALAFIAFQAQAVNVTVAYQTSAEPAKVAQADNTFAKESGATVDWRKFDSGASIVRALASGDVQIGNLGSSPLAVAASQQVPIEVFLLASKLGNSEALVVKKTISKPEDLIGKRIAVPFISTTHYSLLAALKHWGIKPGQVEIVNLQPPAIIAAWQRGDIDGAYVWAPAVNALEKDGKVLTDSEQVGQWGAPTLDVWVVRKDFAEKHPEVVKAFSKSAIDAQQPYIANPDVWLKQPENISKLARLSGVPEGDVPGLVKGNTYLTPQQQTAELTGPVNKAIIDTAQFLKEQGKVPAVANDYSQYVTSRFVQ | not soluble
12 | MNPTVLVAEDDPVQRLLLRRALEPLGVEVRLARHGREALDLALEAPPHLVLTDLHMPHMDGLELTRRLKALDPLLPVLLFTADRDHETRLRGLEAGADDFLNRPFDLTELRLRVKGHLERRRLQEKLEDLERALLALVRAVEAKDPYTAGHAERVARYALLGARELGAGEEELRDLHMGALLHDVGKIGLPDRILRGEAPLSAADWRLIQAHPVKGDEILTPLKAHPRLRPYVRWHHEKLDGSGYPDGLTEIPLLVQVLSAADMYDALTSRRTYREAVKPEEALEALEREAREGRLALEAVRALRSGLRRGASEAKGHVLHL | soluble
13 | MEKQKTFHVAVVGATGAVGEQMLNTLEKREFPIGKLTLLSSKRSAGKKLVFKGEEFTVQEATPESFEGVDIALFSAGGSVSKQLAPEAAKRGAIVVDNTSAFRMTENVPLVVPEVNENDLKEHNGIIANPNCSTIQMVVALEPVRQQYGLKRVIVSTYQAVSGAGAAAIEELHEQSQAILNGEEVKANVLPVSGDKKHFPIAFNAIPQIDKFQDNGFTFEEMKMINETKKIMHMPELEVAATCVRLPVVSGHSESVYIEVEKEGVTVEELKSLLANAEGIVLQDNPEEQLYPMPATAVGKNEVFVGRIRKDLNNDKGFHLWVVSDNLLKGAAWNSVQIAERLVKLQLV | not soluble
